Source: patent US20230295310A1 (ABCELLERA BIOLOGICS, published 2023)

B1: mAb 106 (antibody, V domains shown)
VH: QVQLVESGGGVVQPGRSLRLSCAASGFTFRSYGMHWVRQAPGKGLEWVAIIWYNGNKKDYVDSVKGRFTISRDNSKNTLYLQMNSLRAEDTALYYCARGPGYNWFDPWGQGTLVTVSS
VL: DIQMTQSPPSLSASVGDRVTITCRASQRISSYLNWYQQKPGKAPKLLIYAASSLQSGVPSRFSGSGSGTDFTLTISSLQPEDFATYYCQQSDSFPLTFGGGTKVEII
B2: mAb 110 (antibody, V domains shown)
VH: QVQLVESGGGVVQPGRSLRLSCAASGFTFRSYGMHWVRQAPGKGLEWVAIIWYNGNKKDYVDSVKGRFTISRDNSKNMLYLQMNSLRAEDTALYYCARGPGYNWFDPWGQGTLVTVSS
VL: DIQMTQSPPSLSASVGDRVTITCRASQRISSYLNWYQQRPGKAPKLLIYAASSLQSGVPSRFSGSGSGTDFTLTISSLQPEDFATYYCQQTDSFPLTFGGGTKVEII
B3: mAb 102 (antibody, V domains shown)
VH: QVQLVESGGGVVQPGRSLRLSCAASGFSFRSYGMHWVRQAPGKGLEWVSVISYDGGNKYYADSVKGRFTISRDNSKNTLFLQMKSLRAEDTALYYCAKGGGTYWRGLFEYWGQGTLVTVSS
VL: DIQLTQSPSFLSASVGDRVTITCRASQGISSYLAWYQKKPGKAPKLLIYAASTLHSGVPSRFSGGGSGTAFTLTISSLQPEDFATYYCQQLNNYPFTFGPGTKVDIK
B4: mAb 44 (antibody, V domains shown)
VH: QAQLVQSGSELKKPGASVKVSCKASGYTFTRHAMNWVRQAPGQGLEWMGWINTNTGNPTYAQGFTGRFVFSLDTSVSTAYLKISSLKAEDTAVYYCVREGDYDFWSGFFNFDYWGQGTLVTVSS
VL: DIQMTQSPSSLSASVGDRVTITCRASQGIRNDLGWFQQKPGKAPTRLIYAASSLQSGVPSRFSGSGSGAEFTLTISSLQPEDFATYYCLQHNSYPRTFGQGTKVEIK
B5: mAb 47 (antibody, V domains shown)
V domain 1: QAQLVQSGSELKKPGASVKVSCKASGYTFTKHSMNWVRQAPGQGLEWMGWINTNTGNPTYAQGFTGRFVFSLDTSVTTAYLQISSLKAEDTAVYYCAREGDYDFWSGFFNFDYWGQGTLVTVSS
V domain 2: QAQLVQSGSELKKPGASVKVSCKASGYTFTKHSMNWVRQAPGQGLEWMGWINTNTGNPTYAQGFTGRFVFSLDTSVTTAYLQISSLKAEDTAVYYCAREGDYDFWSGFFNFDYWGQGTLVTVSS
B6: mAb 111 (antibody, V domains shown)
VH: EVQLVESGGVLVKTGGSLRLSCVASGFSFKKAWMNWVRQAPGKGLEWVGRIKRNSDGGAADYAAPVKDRFTLSRDDSKNTLYLQMNSLKTEDTAVYYCTTLDSSSWYVGYYYMDVWGKGTTVTVSS
VL: DIHMTQSPSSVSASLGDRVTFTCRASQNINNWLAWYQQKPGKAPKLLIYTASSLQSGVPSRFSGSGSGTDFTLTISSLQPDDFATYYCQQAHSLPITFGQGTRLGIK
B7: mAb 115 (antibody, V domains shown)
VH: EVQLVESGGGLVKTGGSHRLSCVASGFSFKKAWMNWVRQAPGKGLEWVGRIKRNSDGGTTDYAAPVKGRFILSRDDSKNTLYLQMNSLKTEDTAVYYCTTLDSSSWYVGYYYMDVWGKGTTVTVSS
VL: DIQMTQSPSSVSASVGDRVTITCRASQDINNWLAWYQQKPGKAPKILIYTASNLQSGVPSRFSGSGSGTDFTLTISSLQPEDFATYFCQQAHGLPITFGQGTRLEIK
B8: mAb 113 (antibody, V domains shown)
VH: EVQLVESGGGLVKTGGSLRLSCVASGFSFKKAWMNWVRQAPGKGLEWVGRIKRNTDGGTTDYAAPVKGRFTLSRDDSKNTLYLQMNSLKTEDTAVYYCTTLDSSSWYVGYYYMDVWGKGTTVTVSS
VL: DIQMTQSPSSVSASVGDRVTITCRASQDINNWLAWYQQKPGKAPKILIYTASSLQSGVPSRFSGSGSGTDFTLTISSLQPEDFATYYCQQAHSLPITFGQGTRLEIK
B9: mAb 116 (antibody, V domains shown)
VH: EVQLVESGGGLVKTGGSLRLSCVASGFSFKKAWMNWVRQAPGKGLEWVGRIKRNSDGGTTDYAAPVKGRFTLSRDDSKNTLYLQMNSLKTEDTAVYYCTTLDSSSWYVGYYYMDVWGKGTTVTVSS
VL: DIQMTQSPFSVSASVGDRVTITCRASQDINNWLAWYQQKPGKAPKILIYTASSLQSGVPSRFSGSGSGTDFTLTISSLQPEDFATYYCQQAHSLPITFGQGTRLEIK
B10: mAb 112 (antibody, V domains shown)
VH: EVQLVESGGGLVKTGGSHRLSCVASGFSFKKAWMNWVRQAPGKGLEWVGRIKRNSDGGTTDYAAPVKGRFILSRDDSKNTLYLQMNSLKTEDTAVYYCTTLDSSSWYVGYYYMDVWGKGTTVTVSS
VL: DIQMTQSPSSVSASVGDRVTITCRASQDINNWLAWYQQKPGKAPKILIYTASNLQSGVPSRFSGSGSGTDFTLTISSLQPEDFATYFCQQAHSLPITFGQGTRLEIK
B11: mAb 114 (antibody, V domains shown)
VH: EVQLVESGGGLVKTGGSLRLSCVASGFSFKKAWMNWVRQAPGKGLEWVGRIKRNTDGGPADYAAPVKGRFTLSRDDSKKTLYLQMNSLKTEDTAVYYCTTLDSSSWYVGYYYMDVWGKGTTVTVSS
VL: DIQMTQSPSSVSASVGDRVIITCRASQDINNWLAWYLQRPGKAPKLLIYAASSLQSGVPSRFSGSGSGTDFTLTIGSLQPEDFATYYCQQAHSLPITFGQGTRLEIQ
B12: mAb 94 (antibody, V domains shown)
VH: QVHLVESGGGVVQPGRSLRLSCSASGFTFSGYGMHWVRQAPGKGLEWVALIYFDGRNKYYADSVKGRFTISRDNSKNTLYLQMNSLRAEDTAVYYCARGGGYNWFDPWGQGTLVTVSS
VL: DIQMTQSPSSLSASVGDRVTITCRASQSISNYLNWYQQKPGKAPKLLIYLASSLQSGVPSRFSGSGSGTDFTLTINSLQPEDFASYYCQLSYSSPFTFGPGTKVDVN
B13: mAb 101 (antibody, V domains shown)
VH: QGQLVESGGGVVQPGRSLRLSCAASGFTFRGFGMHWVRQAPGKGLEWVAIIYYDGKNKYYADSVKGRFTISRDNSKNMLYLQMNSLRAEDTAVYYCAKGGGYNWFDPWGQGTLVTVSS
VL: DIQMTQSPSSLSASVGDRVTITCRASQSISTYLNWYQQKPGKAPKLLIYSASSLQSGVPSRFSGSGSGTDFTLTISNLQPEDFAIYYCQRSYSPPFTFGPGTKLDIR
B14: mAb 97 (antibody, V domains shown)
VH: QGQLVESGGGVVQPGRSLRLSCAASGFTFRGYGMHWVRQAPGKGLEWVAIIYYDGKNKYYADSVKGRFTISRDNSKNTLYLQMNNLRVEDTAVYYCARGGGYNWFDPWGQGTLVTVSS
VL: DIQMTQSPSSLSASIGDRVTITCRASQSISNYLNWYQQKPGKAPKLLIYSASSLQSGVPSRFSGSGSGTDFTLTISNLQPEDFAIYYCQRSYSPPFTFGPGTKLDIR
B15: mAb 100 (antibody, V domains shown)
VH: QVQLVESGGGVVQPGRSLRLSCVASGFTFRGYGMHWVRQAPGKGLEWVAIIYYDGKNKYYADSVKGRFTISRDNSKNTLYLQMNSLRVEDTALYYCARGGGYNWFDPWGQGTLVTVSS
VL: DIQMTQSPSSLSASVGDRVTITCRASQSISTYLNWYQQKPGKAPKLLIYTASSLQSGVPSRFSGSGSGTVFTLTISSLQPEDFAIYYCQRSYSPPFTFGPGTRLDIK
B16: mAb 98 (antibody, V domains shown)
VH: QVHLVESGGDVVQPGRSLRLSCSASGFTFSGYGMHWVRQAPGKGLEWVALIYFDGRNKYYADSVKGRFTISRDNSKNTLYLQMNSLRAEDTAVYYCARGGGYNWFDPWGQGTLVTVSS
VL: DIQMTQSPSSLSASVGDRVTITCRASQSINNYLNWYQQKPGKAPKLLIYLASSLQSGVPSRFSGSGSGTDFTLTISSLQPEDLATYYCQLSYSSPFTFGPGTKVDVK
B17: mAb 95 (antibody, V domains shown)
VH: QAHLVESGGGVVQPGRSLRLSCSASGFTFSGYGMHWVRQAPGKGLEWVALIYFDGRNKYYADSVKGRFTISRDNSKNTLYLQMNSLRAEDTAVYYCARGGGYNWFDPWGQGTLVTVSS
VL: DIQMTQSPSSLSASVGDRVTITCRASQSINNYLSWYQQKPGKAPKLLIYLASNLQSGVPSRFSGSGSGTDFTLTISSLQPEDFATYYCQLSYRSPFTFGPGTKVDVK
B18: mAb 99 (antibody, V domains shown)
VH: QGQLVESGGGVVQPGRSLRLSCAASGFTFRGFGMHWVRQAPGKGLEWVAIIYYDGKNKYYADSVKGRFTISRDNSKNTLYLQMNSLRAEDTAVYYCAKGGGYNWFDPWGQGTLVTVSS
VL: DIQMTQSPSSLSASVGDRVTITCRASQSISTYLNWYQQKPGKAPKLLIYSASSLQSGVPSRFSGSGSGTDFTLTISNLQPEDFAIYYCQRSYSPPFTFGPGTKLDIR
B19: mAb 96 (antibody, V domains shown)
VH: QAHLVESGGGVVQPGRSLRLSCSASGFTFSGYGMHWVRQAPGKGLEWVSLIYFDGRNKYYADSVKGRFTISRDNSKNTLYLQMNSLRAEDTAVYYCARGGGYNWFDPWGQGTLVTVSS
VL: DIQMTQSPSSLSASVGDRVTITCRASQSINNYLSWYQQKPGKAPKLLIYLASNLQSGVPSRFSGNGSGTDFTLTISSLQPEDFATYYCQLSYRSPFTFGPGTKVDVK

The binders below were run against human CD3 (human, UniProt P07766 23-207; P04234 22-171; P09693 23-182) (assay: cell-based or functional assay).
human CD3, sequence (P07766 23-207, chain 1 of 3): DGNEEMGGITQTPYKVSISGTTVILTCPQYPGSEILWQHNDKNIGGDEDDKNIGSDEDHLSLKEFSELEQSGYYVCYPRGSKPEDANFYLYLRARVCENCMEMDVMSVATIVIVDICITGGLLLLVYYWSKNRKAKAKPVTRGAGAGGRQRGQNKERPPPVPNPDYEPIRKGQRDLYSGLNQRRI
human CD3, sequence (P04234 22-171, chain 2 of 3): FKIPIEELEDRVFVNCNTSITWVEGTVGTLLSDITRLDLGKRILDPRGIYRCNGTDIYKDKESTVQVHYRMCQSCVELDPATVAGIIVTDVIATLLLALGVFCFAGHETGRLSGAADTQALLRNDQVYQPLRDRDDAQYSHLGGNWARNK
human CD3, sequence (P09693 23-182, chain 3 of 3): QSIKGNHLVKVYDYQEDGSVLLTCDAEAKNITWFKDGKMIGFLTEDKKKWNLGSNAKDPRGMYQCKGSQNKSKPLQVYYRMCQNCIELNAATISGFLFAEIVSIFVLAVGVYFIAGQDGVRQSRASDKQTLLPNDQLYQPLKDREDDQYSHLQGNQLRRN

| Binder | CD4 EC50 (nM); CD69/CD25 on human T cells, plate-coated antibody [nM] | CD8 EC50 (nM); CD69/CD25 on human T cells, plate-coated antibody [nM] |
| --- | --- | --- |
| B1 | 13.6 | 12.9 |
| B2 | 13.5 | 15.3 |
| B3 | 15.6 | 16.9 |
| B4 | 20.4 | 20.9 |
| B5 | 23.4 | 23.8 |
| B6 | 6.96 | 9.42 |
| B7 | 7 | 7.16 |
| B8 | 8.81 | 8.89 |
| B9 | 6.96 | 7.01 |
| B10 | 6.48 | 6.56 |
| B11 | 12.6 | 12.5 |
| B12 | 11.7 | 12.4 |
| B13 | 12.9 | 14.5 |
| B14 | 12.6 | 13.9 |
| B15 | 13.1 | 13.3 |
| B16 | 11.3 | 12 |
| B17 | 14.4 | 15.5 |
| B18 | 11.7 | 12.1 |
| B19 | 17.2 | 19.5 |
